Consider eleven molecules from patent US20250270339A1 (Alector, published 2025).

Experiment [1] has as its target T1, Full length human TfR on CHO cells (human, UniProt P02786 1-760).
T1 construct: also called CHO + huTfR; CHO + hTfR
The experiment is described as follows: FACS MFI, supernatant. The method, then:
(§1) A total of 1536 anti-TfR hybridoma supernatants were initially screened for their ability to differentially bind CHO cells overexpressing human or mouse TfR cells compared to CHO parental cells by FACS. Overexpressing cells were harvested, washed and labeled with Pacific Blue, FITC and Pacific Orange dyes (ThermoFisher) to create uniquely barcoded cell populations. Barcoded cells (5×10⁴ of each cell population) were aliquoted into 96-well U-bottom plates and incubated with 50 μl of hybridoma cell culture supernatant or […] of commercially available purified mouse anti-human TfR monoclonal antibody (Sigma Aldrich, Cat #SAB4700515) and rat anti-mouse TfR antibody (Invitrogen, Waltham, MA, Cat #R17217) on ice for 30 minutes. After this primary incubation, the supernatants were removed via centrifugation, the cells were washed twice with 175 μl of ice-cold FACS buffer (PBS+1% FBS+2 mM EDTA), and the cells were then further incubated on ice for 20 minutes with anti-mouse IgG Fc-allophycocyanin (APC) or anti-rat IgG Fc-APC (Jackson Labs, Cat #115-136-071 and Cat #112-136-071, respectively) (diluted 1:1000). Following this secondary antibody incubation, the cells were again washed twice with ice-cold FACS buffer and resuspended in a final volume of 50 μl of FACS buffer. Binding intensity on cells was analyzed using the FACS Canto system (BD Biosciences), and the ratio of APC Mean Fluorescence Intensity (MFI) on each barcoded cell population was determined for each anti-TfR hybridoma supernatant tested.

Experiment [2] concerns the target T2, Full length Mouse TfR on CHO cells (mouse, UniProt Q62351 1-763).
T2 construct: also called CHO + muTfR
Description: FACS MFI, supernatant. The method, then:
as §1

Experiment [3] has as its target T3, huTfR Apical Domain-Avi-His (human, biotin on the Avi tag (BirA) where captured on streptavidin).
T3 construct: also called huTfR apical Avi-His; hTfR Apical
T3 chain: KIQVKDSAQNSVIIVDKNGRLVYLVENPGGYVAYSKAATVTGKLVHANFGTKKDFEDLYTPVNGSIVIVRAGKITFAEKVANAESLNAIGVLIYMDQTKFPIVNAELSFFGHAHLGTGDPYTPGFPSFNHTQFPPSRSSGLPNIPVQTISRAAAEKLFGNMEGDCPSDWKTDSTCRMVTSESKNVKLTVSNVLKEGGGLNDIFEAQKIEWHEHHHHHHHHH
The experiment is described as follows: ELISA OD450, supernatant. The method, then:
Hybridoma culture supernatants from 319 hybridomas obtained as described above were screened for their ability to bind Avi-His-tagged huTfR ECD, huTfR apical domain, and muTfR ECD (as described in Example 1) as compared to binding to an irrelevant Avi-His-tagged control protein. Briefly, 96-well polystyrene plates were coated with 5 μg/ml of streptavidin (Thermo Fisher, Cat #PI21125) in coating buffer (0.05M carbonate buffer, pH 9.6, Sigma, Cat #C3041) overnight at 4° C. Coated plates were then blocked with ELISA diluent (PBS+0.5% BSA+0.05% Tween20) for one hour. Blocking buffer was removed and Avi-His-tagged human TfR, human TfR apical domain, mouse TfR and an irrelevant Avi-His-tagged protein were added at 1 μg/ml in ELISA diluent and captured for 1 hour at room temperature. After washing three times with 300 μl of PBST (PBS+0.05% Tween20, Thermo 28352), the hybridoma cell culture supernatants were added (50 μl/well) to each well. After 30 minutes of incubation at room temperature, the plates were washed three times with 300 μl of PBST. Anti-mouse IgG Fc-HRP or anti-rat IgG Fc-HRP (Jackson Immunoresearch, Cat #115-035-071 and 112-036-071, respectively) secondary antibodies were diluted 1:5000 in ELISA diluent, added to each well at 50 μl/well, and incubated for 30 minutes at room temperature with shaking. After a final set of washes (3×300 μl in PBST), 50 μl/well of BioFx TMB substrate (Surmodics, Cat #TMBW-1000-01) was added to the wells. The reaction was then quenched after 5-10 mins with 50 μl/well of 2N sulfuric acid. The plates were read for absorbance at 450 nm on a SpectraMax M5 (Molecular Devices, Sunnyvale, CA) using SoftMax Pro software.

Experiment [4] addresses T2, Full length Mouse TfR on CHO cells. The experiment is described as follows: FACS, CHO+muTfR. The method, then: as §1
On the technique in general: In flow cytometry, cells or beads pass a laser one at a time.

T1 sequence (P02786 whole entry): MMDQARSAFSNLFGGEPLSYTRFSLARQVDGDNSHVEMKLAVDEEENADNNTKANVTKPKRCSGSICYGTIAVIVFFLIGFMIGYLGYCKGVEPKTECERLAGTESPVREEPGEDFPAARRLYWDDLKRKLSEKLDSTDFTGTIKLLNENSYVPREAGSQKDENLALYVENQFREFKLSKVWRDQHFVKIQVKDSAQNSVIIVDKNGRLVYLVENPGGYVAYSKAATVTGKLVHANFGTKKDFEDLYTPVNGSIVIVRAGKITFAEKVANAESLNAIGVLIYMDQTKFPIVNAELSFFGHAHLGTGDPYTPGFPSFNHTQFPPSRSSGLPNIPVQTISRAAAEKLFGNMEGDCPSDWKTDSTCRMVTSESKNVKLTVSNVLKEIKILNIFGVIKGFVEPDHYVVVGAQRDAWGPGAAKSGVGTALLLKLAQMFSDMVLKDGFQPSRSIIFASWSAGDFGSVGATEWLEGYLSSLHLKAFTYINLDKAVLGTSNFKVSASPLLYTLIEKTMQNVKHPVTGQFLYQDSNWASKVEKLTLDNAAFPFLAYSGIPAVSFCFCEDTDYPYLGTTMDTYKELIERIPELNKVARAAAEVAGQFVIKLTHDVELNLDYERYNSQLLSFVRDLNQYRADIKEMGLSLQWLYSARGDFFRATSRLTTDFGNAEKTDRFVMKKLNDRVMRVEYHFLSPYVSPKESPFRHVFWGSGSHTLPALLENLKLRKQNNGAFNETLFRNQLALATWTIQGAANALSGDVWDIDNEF
T2 sequence (Q62351 whole entry): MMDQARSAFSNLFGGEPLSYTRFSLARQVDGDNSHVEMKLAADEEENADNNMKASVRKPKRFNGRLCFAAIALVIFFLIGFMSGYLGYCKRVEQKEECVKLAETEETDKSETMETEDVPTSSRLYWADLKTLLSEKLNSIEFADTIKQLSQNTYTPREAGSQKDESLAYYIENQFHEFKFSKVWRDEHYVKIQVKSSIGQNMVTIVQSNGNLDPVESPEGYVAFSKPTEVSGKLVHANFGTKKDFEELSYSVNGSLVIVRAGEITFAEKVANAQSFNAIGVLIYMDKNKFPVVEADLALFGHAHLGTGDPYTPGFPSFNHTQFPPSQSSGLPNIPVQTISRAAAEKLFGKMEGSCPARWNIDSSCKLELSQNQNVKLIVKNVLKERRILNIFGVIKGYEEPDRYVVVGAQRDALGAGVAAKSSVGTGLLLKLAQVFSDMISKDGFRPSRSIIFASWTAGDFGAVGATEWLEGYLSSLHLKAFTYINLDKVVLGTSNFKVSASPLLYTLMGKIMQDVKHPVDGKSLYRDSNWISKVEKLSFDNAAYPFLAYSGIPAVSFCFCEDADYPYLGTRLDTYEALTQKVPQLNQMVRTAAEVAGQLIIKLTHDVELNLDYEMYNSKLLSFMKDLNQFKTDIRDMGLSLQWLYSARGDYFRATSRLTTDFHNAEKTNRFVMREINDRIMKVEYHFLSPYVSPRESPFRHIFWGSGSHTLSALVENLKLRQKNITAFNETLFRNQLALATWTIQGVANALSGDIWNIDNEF

B1: TfR30 (mouse hybridoma antibody) (antibody, V domains shown)
VH: QVQLQQSGPQLVRPGASVKISCKASGYSFTNYWLHWVKQRPGQGLEWIGMIDPSDSETRLNQKFKDKATLTVDKSSSTAYMQLSSPTSEDSAVYYCARWGGGYYGFAYWGQGTLVTVSA
VL: DIVMTQSQKFMSTSVGDRVSITCKASQNVRTAVAWYQQKPGQSPKALIYLASNRHTGVPDRFTGSGSGTDFTLTISNVQSEDLADYFCLQHWNYPWTFGGGTKLEIK
notes: mouse IgG in hybridoma supernatant
For the molecule B1, the “fold over parental (CHO WT)” value was determined as 169 fold in experiment [1] and 1 fold in experiment [2]. Moreover, the “ratio over irrelevant protein” value in experiment [3] worked out at 29 fold.

B2: TfR4 (mouse hybridoma antibody) (antibody, V domains shown)
VH: QVQLQQSGAELVRPGTSVKVSCKASGYAFTNYLIEWVKQRPGQGLEWIGVINPGSGGTTYNEKFKGKATLTADKSSSTAYMQLSGLTSDDSAVYFCARRSPYFDYWGQGTTLTVSS
VL: SIVMTQTPKFLLVSAGDRVTITCKASQSVSNDVAWYQQKPGQSPKLLIYYASNRYTGVPDRFTGSGYGTDFTFTISTVQAEDLAVYFCHQDYISPTFGGGTKLEIK
notes: as for B1
As to B2, the binding result in experiment [4] is “no binding”. The entries for the “fold over parental (CHO WT)” value in experiment [1] and in experiment [2] were 61 fold and 1 fold, respectively. In addition, the “ratio over irrelevant protein” value in experiment [3] was determined as 42 fold.

B3: TfR8 (mouse hybridoma antibody) (antibody, V domains shown)
VH: QVQLQQSGAELVRPGTSVKVSCKASGYAFTNYLIEWVKQRPGQGLEWIGVINPGSGGTNYNEKFKGKATLTADKSSSTAYMQLSSLTSDDSAVYFCARRSPYFDYWGQGTTLTVSS
VL: SIVMTQTPKFLLVSAGDRVTITCKASQSVSNDVAWYQQKPGQSPKLLIYYASNRYTGVPDRFTGSGYGTDFTFTISTVQAEDLAVYFCHQDYISPTFGGGTKLEIK
notes: as for B1
Take B3: the binding result in experiment [4] is “no binding”. Moreover, the “fold over parental (CHO WT)” value in experiment [1] came out at 215 fold; in experiment [2], 1 fold. In addition, the “ratio over irrelevant protein” value in experiment [3] was 37 fold.

B4: TfR18 (mouse hybridoma antibody) (antibody, V domains shown)
VH: QVQLQQSGAELVRPGTSVKVSCKASGYAFTNYLIEWIKQRPGQGLEWIGVINPGNNDTTYNEMFKAKTTLTADKSSNTAYMQLSSLTSDDSAVYFCARRSPYFDYWGQGTTLTVSS
VL: SIVMTQTPKFLLVSAGDRVTITCKASQSVSNDVAWYQQKPGQSPKLLIYYASNRYTGVPDRFTGSGYGTDFTFTISTVQAEDLAVYFCHQDYSSPTFGGGTKLEIK
notes: as for B1
On to B4, for which the binding result in experiment [4] is “no binding”. Moreover, the “fold over parental (CHO WT)” value is 75 fold in experiment [1] and 1 fold in experiment [2]. Besides, in experiment [3], the “ratio over irrelevant protein” value is 32 fold.

B5: TfR7 (mouse hybridoma antibody) (antibody, V domains shown)
VH: DVQLQESGPGLVKPSQSLSLTCTVTGYSITSDYAWNWLRQFPGNKLEWMGYISYSGYSRHNPSLKSRISITRDTSKNQFFLQLNSVTSEDTATYYCARGDWDFDYWGQGTTLTVSS
VL: DIVMTQSQKFMSTSVGDRVSVTCKASQNVLTNVAWYQQKPGHSPKALIYSSSSRNSGVPDRFTGSGSGTDFTLTISNVQSEDLAEYFCQQYNTYPYTFGGGTKLEIK
notes: as for B1
Turning to B5, in experiment [4], the binding result is “no binding”. In addition, the “fold over parental (CHO WT)” value in experiment [1] came to 87 fold; in experiment [2], 1 fold. For the same molecule, in experiment [3], the “ratio over irrelevant protein” value was 48 fold.

B6: TfR2 (mouse hybridoma antibody) (antibody, V domains shown)
VH: EVQLQQSGPELVKPGASVKISCKASGYTFTDYNMHWVKQSHGKSLEWIGYIYPYNGGTGYNQKFKSKATLTVDNSSSTAYMELRSLTSEDSAVYYCATLYDGYYFDYWGQGTTLTVSS
VL: DILLTQSPAILSVSPGERVSFSCRASQSIGTSIHWYQQRTNGSPRLLIKYASESISGIPSRFSGSGSGTDFTLSINNVESEDIADYYCQQSNSWPFTFGSGTKLEIK
notes: as for B1
Take B6: the binding result in experiment [4] is reported as “no binding”. Also, the “fold over parental (CHO WT)” value in experiment [1] turned out to be 458 fold; in experiment [2], 1 fold. For the same molecule, the “ratio over irrelevant protein” value in experiment [3] was 5 fold.

B7: TfR9 (mouse hybridoma antibody) (antibody, V domains shown)
VH: EVQLQQSGPELVKPGASVKISCKTSGYTFTEYAMHWVKQSHGKSLEWIGGINPNDGGTSYNQKFKGKATLTVDKSSSTAYMELRSLTSEDSAVYYCSSQRWLLRGGDYWGQGTTLTVSS
VL: not shown
notes: as for B1
As for B7, the binding result in experiment [4] is given as “no binding”. Besides, the “fold over parental (CHO WT)” value in experiment [1] was 203 fold; in experiment [2] it was 1 fold. The “ratio over irrelevant protein” value in experiment [3] came out at 10 fold.

B8: TfR1 (mouse hybridoma antibody) (antibody, V domains shown)
VH: QVQLQQSGPELVKPGASVKMSCKASGYTFTNYYIHWVKQRPGQGLEWIGWIYPGDGSTKYNEKFKGKTTLTADKSSSTAYMLLSSLTSEDSAIYFCARDGSSAPKFTYWGQGTLVTVSA
VL: DIVMTQSPSSLTVTAGEKVTMRCKSSQSLLNSGNQKNYLTWYQQKPGQPPKLLIYWASTRESGVPDRFTGSGSGTDFTLTISSVQAEDLAVYYCQNDYSYPLTFGAGTKLELK
notes: as for B1
As to B8, the binding result in experiment [4] was “no binding”. The “fold over parental (CHO WT)” value in experiment [1] turned out to be 228 fold; in experiment [2], 1 fold. The “ratio over irrelevant protein” value in experiment [3] amounted to 22 fold.

B9: TfR3 (mouse hybridoma antibody) (antibody, V domains shown)
VH: QVQLRQSGPELVKPGASVRISCKASGYTFTSFYIHWVKQRPGQGLEWIGWIYPGDVNTHYSDKFKGKATLTADKSSSTAYMQLSSLTSEDSAVYFCAREGYGYFAYWGQGTLVTVSA
VL: DIVMTQSPSSLTVTAGEKVTMSCKSSQSLLNSGNQKNYLTWYQQKPGQPPKLLIYWASTRESGVPDRFTGVGSGTDFTLTISSVQAEDLAVYYCQNDYSYPLTFGSGTKLELK
notes: as for B1
In the case of B9, in experiment [4], the binding result is recorded as “no binding”. Also, the “fold over parental (CHO WT)” value in experiment [1] was 38 fold; in experiment [2], 1 fold. For the same molecule, the “ratio over irrelevant protein” value in experiment [3] turned out to be 37 fold.

B10: TfR5 (mouse hybridoma antibody) (antibody, V domains shown)
VH: QVQLQQSGPELVKPGASVKMSCKASGYTFTNYYIHWVKQRPGQGLEWIGWIYPGDGNTNYNEKFKGKTTLTADKSSSTAYMLLSSLTSEDSAIYFCARDGSSAPKFTYWGQGTLVTVSA
VL: DIVMTQSPSSLTVTAGEKVTMRCKSSQSLLNSGNQKNYLTWYQQKPGQPPKLLFYWASTRESGVPDRFTGSGSGTDFTLTISSVQAEDLAVYYCQNDYSYPLTFGAGTKLELK
notes: as for B1
As to B10, the binding result in experiment [4] is “no binding”. The figures for the “fold over parental (CHO WT)” value in experiment [1] and in experiment [2] were 561 fold and 1 fold, respectively. For the same molecule, the “ratio over irrelevant protein” value in experiment [3] was found to be 15 fold.

B11: TfR6 (mouse hybridoma antibody) (antibody, V domains shown)
VH: DVQLVESGGGLVQPGGSRKLSCAASGFTFSSFGMHWVRQAPEKGLEWVAYISSGSSAIYYADTVKGRFTVSRDNPKNTLFLQMTSLRSEDTAIYYCATSYVYDPPWFAYWGQGTLVTVSA
VL: DIVMTQSHKFMSTSVGDRVSITCKASQDVSTAVAWYQQKPGQSPKLLIYWASTRPTGVPDRFTGSGSGTDYTLTISSVQAEDLALYSCQQHFSTPWTFGGGTKLEIK
notes: as for B1
With B11, in experiment [4], the binding result is on record as “no binding”. Further, the “fold over parental (CHO WT)” value in experiment [1] is 451 fold; in experiment [2], 1 fold. Besides, the “ratio over irrelevant protein” value in experiment [3] amounted to 37 fold.
